Source: patent publication US11548923B2, “Peptide compositions and methods of use thereof for disrupting TEAD interactions” (Fred Hutchinson Cancer Center, priority 2017, dated 2023)

Experiments:
[1] = test system: HeLa cells expressing the HaloEnzyme; type: cell-based; settings: 1 μM HT-labeled peptide, 4 hours
Protocol: HeLa cells expressing the HaloEnzyme (a modified bacterial haloalkane dehalogenase, further modified to target to the cytosol-facing side of the outer mitochondrial membrane) were grown in 24 well dishes until ˜60% confluent. […] After incubation, cells were rinsed and incubated with Opti-MEM for 30 minutes, and were then incubated with 5 μM HT-TAMRA ligand (Promega G8251) for 30 minutes. An additional control with no HT-TAMRA was tested. After this incubation, cells were rinsed with PBS and then imaged on a fluorescent microscope in FITC/green (all cells) and TRITC/red (HT-TAMRA accumulation) channels.
FIG. 28 illustrates cell-by-cell quantitation of average fluorescence in the red channel of cells in a CAPA.

[2] = SYPRO Orange thermal shift (melting) assay; type: physicochemical; settings: heating from 20° C. to 95° C.
Protocol: Thermal Shift Assay. Protein melting temperature (Tm) determination can be performed by monitoring protein unfolding using SYPRO Orange dye (Molecular Probes). In brief, 0.1 mg/mL protein sample in 20 μL total volume PBS buffer can be mixed with 2 μL of 10×SYPRO Orange dye. Dye intercalation into the hydrophobic protein core following protein unfolding was assayed using the C1000 Touch Thermal Cycler with CFX96 Deep Well Real-Time System (BioRad). Samples were heated from 20° C. to 95° C. with stepwise increments of 0.5° C. per minute and a 5 see hold step for every point, followed by fluorescence reading. Tm were calculated by analyzing the derivatives of Relative florescence Units (RFU).
Protein secondary structures were assessed using Circular Dichroism (CD). CD spectra were measured with a Jasco J-720W spectropolarimeter using a 1.0 mm path length cell. Protein samples in 10 mM phosphate buffer (pH=7.4) were at 25-30 μM protein concentration. Samples were analyzed at wavelength ranges of 260-190 nM. Data were expressed in terms of relative ellipticity; (mdeg). […] Samples were heated from 20° C. to 95° C. with stepwise increments of 0.5° C. per minute and a 5 sec hold step for every point, followed by fluorescence reading. Tm was calculated by analyzing the derivatives of Relative florescence Units (RFU). […]

biotinylated TEAD = biological target: T1, biotinylated TEAD (Homo sapiens, UniProt P28347); experiment: Surface plasmon resonance (SPR) binding of soluble peptides to captured biotinylated TEAD; settings: biotinylated TEAD immobilized on an SPR chip, read-out: dissociation constant (KD)
T1 construct: GST; made in house; host or cells: Hi5 insect cells (baculovirus, BacMagic, pIEX-BAC3)
T1 sequence (P28347 209-426): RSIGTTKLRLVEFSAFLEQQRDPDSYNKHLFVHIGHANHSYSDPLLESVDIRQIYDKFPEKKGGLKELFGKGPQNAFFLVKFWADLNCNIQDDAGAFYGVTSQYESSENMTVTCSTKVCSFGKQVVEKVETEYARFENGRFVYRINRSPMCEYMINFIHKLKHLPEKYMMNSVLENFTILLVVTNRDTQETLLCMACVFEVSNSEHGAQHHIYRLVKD

B1: GSGDCLPHLKRCKADNDCCGKKCKRRGTNAEKRCREPKSSDKTHTPDEYIERAKECCKKQDIQCCLRIFDESKDPNVMLICLFCW (peptide)
chain: GSGDCLPHLKRCKADNDCCGKKCKRRGTNAEKRCREPKSSDKTHTPDEYIERAKECCKKQDIQCCLRIFDESKDPNVMLICLFCW
cell penetration [1]: high cell penetration

B2: Human siderocalin: Human siderocalin (HuScn), control protein in SYPRO Orange melting assay (protein, UniProt P80188 21-198, looked up)
Neutrophil …: QDSTSDLIPAPPLSKVPLQQNFQDNQFQGKWYVVGLAGNAILREDKDPQKMYATIYELKEDKSYNVTSVLFRKKKCDYWIRTFVPGCQPGEFTLGNIKSYPGLTSYLVRVVSTNYNQHAMVFFKKVSQNREYFKITLYGRTKELTSELKENFIRFSKSLGLPENHIVFPVPIDQCIDG
melting temperature [2]: 79 °C

B3: Siderocalin-fused YAP: YAP (50-171) produced as a soluble siderocalin fusion (protein)
chain: QDSTSDLIPAPPLSKVPLQQNFQDNQFQGKWYVVGLAGNAILREDKDPQKMYATIYELKEDKSYNVTSVLFRKKKCDYWIRTFVPGCQPGEFTLGNIKSYPGLTSYLVRVVSTNYNQHAMVFFKKVSQNREYFKITLYGRTKELTSELKENFIRFSKSLGLPENHIVFPVPIDQCIDGAGHQIVHVRGDSETDLEALFNAVMNPKTANVPQTVPMRLRKLPDSFFKPPEPKSHSRQASTDAGTAGALTPQHVRAHSSPASLQLGAVSPGTLTPTGVVSGPAATPTAQHLRQSSFEIPDDV
modifications: left off: small tags and cut ends
Kd (biotinylated TEAD): 570 nM
